The target in one test is HLA-B*51:01. The test can be described thus: IEDB peptide-MHC binding, purified MHC/direct/fluorescence; filed as Kd, often an IC50 or EC50 that approximates it; ≥ and ≤ were set here for values at or beyond the usual limits of such assays. To be noted: source organism: Vibrio parahaemolyticus.
The target in test [1] is HLA-B*15:01. The test is described as above.
A further test has as its target HLA-C*14:02. Described as above.
Test [2] concerns the target HLA-B*07:02. The description is as above. The note with it: source organism: Vibrio parahaemolyticus.
Test [3] deals with HLA-B*07:02. The experiment in a line: IEDB peptide-MHC binding, purified MHC/competitive/fluorescence; filed as Kd, often an IC50 or EC50 that approximates it; ≥ and ≤ were set here for values at or beyond the usual limits of such assays. To be noted: source organism: Influenza A virus (A/chicken/Scotland/1959(H5N1)).
The target in the next test is HLA-A*68:01. The experiment in a line: IEDB peptide-MHC binding, purified MHC/competitive/radioactivity; filed as Kd, often an IC50 or EC50 that approximates it; ≥ and ≤ were set here for values at or beyond the usual limits of such assays. To be noted: source organism: Vaccinia virus WR.
Test [4] concerns the target HLA-A*31:01. Described as above. The note with it: source organism: Vaccinia virus WR.
The target in another test is HLA-A*33:01. Described as above. To be noted: source organism: Vaccinia virus WR.
In test [5] the target is HLA-B*15:01. The test can be described thus: IEDB peptide-MHC binding, purified MHC/competitive/fluorescence; ≥ and ≤ were set here for values at or beyond the usual limits of such assays. To be noted: source organism: Vaccinia virus Copenhagen.
In a further test the target is HLA-A*11:01. The description is as above. To be noted: source organism: Vaccinia virus Copenhagen.
The target in test [6] is HLA-A*01:01. The description is as above.
The target of test [7] is HLA-A*03:01. The description is as above. To be noted: source organism: Vaccinia virus Copenhagen.
In test [8] the target is HLA-A*02:01. The description is as above. To be noted: source organism: Vaccinia virus Copenhagen.
The target of another test is HLA-C*15:02. The test can be described thus: IEDB peptide-MHC binding, purified MHC/direct/fluorescence; filed as Kd, often an IC50 or EC50 that approximates it; ≥ and ≤ were set here for values at or beyond the usual limits of such assays.
For a further test, the target named is HLA-B*46:01. The experiment in a line: IEDB peptide-MHC binding, purified MHC/competitive/fluorescence; filed as Kd, often an IC50 or EC50 that approximates it; ≥ and ≤ were set here for values at or beyond the usual limits of such assays. To be noted: source organism: Bacillus anthracis str. A0488.
Another test deals with HLA-B*57:01. The experiment in a line: IEDB peptide-MHC binding, purified MHC/direct/fluorescence; filed as Kd, often an IC50 or EC50 that approximates it; ≥ and ≤ were set here for values at or beyond the usual limits of such assays.
In a further test the target is HLA-B*58:01. The description is as above.
The target in another test is HLA-B*27:05. The test is described as above. To be noted: source organism: Mammarenavirus juninense.
In another test the target is HLA-B*18:01. Described as above. The note with it: source organism: Mammarenavirus juninense.
In test [9] the target is HLA-A*31:01. The test is described as above. To be noted: source organism: Mammarenavirus juninense.
Test [10] has as its target HLA-A*01:01. The description is as above. The note with it: source organism: Mammarenavirus juninense.
Test [11] addresses HLA-A*03:01. The description is as above. The note with it: source organism: Mammarenavirus juninense.
The target of test [12] is HLA-A*02:01. The description is as above. The note with it: source organism: Mammarenavirus juninense.
The target in the next test is HLA-C*03:03. Described as above. To be noted: source organism: Mammarenavirus juninense.
The next test concerns the target HLA-A*29:02. The description is as above. To be noted: source organism: Mammarenavirus juninense.
The target of another test is HLA-A*02:11. Described as above. The note with it: source organism: Mammarenavirus juninense.
Another test addresses HLA-B*44:02. Described as above. To be noted: source organism: Mammarenavirus juninense.
A further test deals with HLA-B*39:01. The test is described as above. The note with it: source organism: Mammarenavirus juninense.
The target in the next test is HLA-A*24:02. The test can be described thus: IEDB peptide-MHC binding, purified MHC/competitive/fluorescence; ≥ and ≤ were set here for values at or beyond the usual limits of such assays. To be noted: source organism: Vaccinia virus Copenhagen.
For a further test, the target named is HLA-B*40:01. The test can be described thus: IEDB peptide-MHC binding, purified MHC/direct/fluorescence; filed as Kd, often an IC50 or EC50 that approximates it; ≥ and ≤ were set here for values at or beyond the usual limits of such assays. The note with it: source organism: SARS-CoV1.
Where [13] appears, read: source organism: Vaccinia virus Copenhagen.
The mark [14] stands for this setting: source organism: Cryptosporidium parvum.
Where [15] appears, read: source organism: Mammarenavirus juninense.

Bounds are passed on as bounds.

One may read the Kd as the equilibrium constant for the complex coming apart. Regarding KVAQAAAAM, the Kd with HLA-B*51:01 is not below 20 µM; in the test with HLA-B*15:01 [1] (source organism: Vibrio parahaemolyticus AQ3810) it was 0.029 µM; with HLA-C*14:02 (source organism: Vibrio antiquarius) it was 0.072 µM; with HLA-B*07:02 [2] it was 0.034 µM.

Sequence SPYRTLMSCPI displayed a Kd with HLA-B*07:02 [3] of 0.0036 µM.

Broadly, the IC50 is the concentration needed to halve the response being measured. Low readings indicate greater potency in that assay, high ones weaker potency in that assay. With KLNGAMVEY, the figures for the Kd with HLA-A*68:01, with HLA-A*31:01 [4] and with HLA-A*33:01 were 0.00597 µM, 1.18 µM and 1.96 µM, respectively. Further, the IC50 is 12.2 µM with HLA-B*15:01 [5]; 7.97 µM with HLA-A*11:01; not below 192 µM in the test with HLA-A*01:01 [6] (setting [13]); 11.6 µM with HLA-A*03:01 [7]; not below 95.4 µM with HLA-A*02:01 [8].

As for LMAFSTGPF, the values for the Kd in the test with HLA-C*15:02 (source organism: Bacillus anthracis str. A0488) and with HLA-B*46:01 were not below 20 µM and 2.76 µM, respectively.

As to VVDPDDGSY, in the test with HLA-A*01:01 [6] (source organism: Zaire ebolavirus), the IC50 worked out at 44.1 µM.

KAFPLIQNM: the values for the Kd with HLA-B*57:01 (setting [14]), with HLA-C*14:02 (source organism: Cryptosporidium parvum Iowa II) and with HLA-B*58:01 (setting [14]) were 0.124 µM, 0.368 µM and 0.0124 µM, respectively.

In the test with HLA-C*14:02 (source organism: human gammaherpesvirus 4), AASYARYVL gave a Kd of 0.491 µM.

As to ASSEPHCAL, the equilibrium dissociation constant (Kd) in the test with HLA-B*27:05, with HLA-B*57:01 (setting [15]), in the test with HLA-B*18:01, with HLA-A*31:01 [9], with HLA-A*01:01 [10] and with HLA-A*03:01 [11] was not below 20 µM each time. Moreover, the Kd in the test with HLA-A*02:01 [12] was not below 20 µM; with HLA-C*03:03, not above 0.001 µM; with HLA-A*29:02, not below 20 µM; with HLA-B*58:01 (setting [15]) it was not below 20 µM; with HLA-A*02:11 it was 0.04 µM; with HLA-B*44:02, not below 20 µM. In the test with HLA-B*39:01, this sequence gave an equilibrium dissociation constant (Kd) of 1.07 µM.

LYQLLEAVY: the IC50 with HLA-B*15:01 [5] was not below 71.9 µM; with HLA-A*24:02, 0.0687 µM; with HLA-A*01:01 [6] (setting [13]), not below 199 µM; with HLA-A*02:01 [8], not below 72.8 µM.

Turning to LQIPFAMQM, the equilibrium dissociation constant (Kd) stood at 0.11 µM with HLA-C*15:02 (source organism: SARS-CoV1), 0.18 µM with HLA-B*15:01 [1] (source organism: SARS-CoV1), 4.04 µM in the test with HLA-B*40:01 and 0.986 µM in the test with HLA-B*58:01 (source organism: SARS-CoV1).
